# Earlier results as cited in article PMC7094366.
# Target: SARS-CoV 3C-like proteinase (Severe acute respiratory syndrome coronavirus) (UniProt P0C6X7)
substance,measurement,value
SARS-CoV 3C-like proteinase (from UniProt P0C6X7),Kd,100 µM
